Columns and labels:
[1] = biological target: human PLOD2b GLT-AC truncation (PLOD2b-GA) (human); assay: SEC-MALS; the paper calls it SEC-DLS (size exclusion chromatography with dynamic light scattering); Superdex 200 10/300, miniDAWN TREOS and Optilab T-rEX detectors, 20 mM Tris pH 8, 200 mM NaCl, 3 mg ml^-1, 150 μl injected, 0.5 ml min^-1; molar mass across the peak; each protein analyzed once
[2] = biological target: the molecule itself; assay: as above

Which stoichiometry N [1] does the source give for “human PLOD2b GLT-AC truncation (PLOD2b-GA) (domain or fragment)” here?
The stoichiometry N was 2.

B1: mimiviral collagen glucosyltransferase R699, wild type (pET28 construct) (enzyme)
chain: EQSNNDDNLLVLGIGISVHKTDGVLRFEKYCQAHNLQYMIVGEGKKWNGGNLESEAGGGQKINELLIALESIKDNKLIVVCDTYDLIPLSGPEEILRKYRFLTPDNKVVFSSELYCWPDASLVERYPKVDTKYKYLNSGAFMGYRDDIYEMIKNGVKDRDDDQLFFSIKFIETDKIVLDYKCELFQAMYRCNSDLVVHKNRIFNGYTNSYPVFAHGNGPAKKLLNHMEGYFMTEPIDGSSNTINTFKLDNEPKVFFALYVDSNDLSALKQFLGKVASIQYGNKVIYLYDRSDNEQNRKLIQISYPNYHTGVTKYVFDDFKKSDAQFYFLLEQNCIITKKDILHELIMQVKDNHRVISPMIGYEQNSTRTNFWGDIEDGYYKRSENYLDLAKHKVRGLWNVPYVYGVILMHESVVRNWDLSMVKYNDKDMDLCFSLRKHTIFMYMINNNNYGYMV
notes: R699 protein of Acanthamoeba polyphaga mimivirus, collagen galactosylhydroxylysyl glucosyltransferase; gene synthesized by Genscript; The vector has a PreScission site in place of the thrombin site, and no cleavage is described for this construct; also called R699WT; mimiviral R699
How did the “stoichiometry N” value [2] turn out when B1 was run?
Its value is 2.

From paper PMC11838735, “Structural basis of collagen glucosyltransferase function and its serendipitous role in kojibiose synthesis” (Research Square, 2025)
